The target in this experiment is Endothelin B receptor (ETRB) (human) (UniProt P24530). The experiment is described as follows: cell-based or functional assay.
UniProt P24530, sequence (P24530 27-442 limits assumed): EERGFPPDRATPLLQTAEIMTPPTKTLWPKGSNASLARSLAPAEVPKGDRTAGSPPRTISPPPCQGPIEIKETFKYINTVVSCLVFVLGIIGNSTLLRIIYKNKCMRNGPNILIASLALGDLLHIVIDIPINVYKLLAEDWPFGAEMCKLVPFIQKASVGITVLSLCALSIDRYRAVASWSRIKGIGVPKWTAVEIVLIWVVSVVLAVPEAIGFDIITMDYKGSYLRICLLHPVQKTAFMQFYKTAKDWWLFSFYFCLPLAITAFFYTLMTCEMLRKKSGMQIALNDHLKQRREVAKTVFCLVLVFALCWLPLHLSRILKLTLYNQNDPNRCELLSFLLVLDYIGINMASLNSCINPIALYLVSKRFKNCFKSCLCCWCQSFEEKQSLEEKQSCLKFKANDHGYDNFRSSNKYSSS

ETRB antagonist peptide, BQ-788 yielded an ICAM-1 mRNA in HUVEC (qRT-PCR) of more than 7 fold and an adherence of activated human T cells to HUVEC of 40%.

Values taken from patent US20090214518A1.
